# T1: Human TROP2 ECD (31-274 AA), biotinylated (human), P09758
# T1 chain: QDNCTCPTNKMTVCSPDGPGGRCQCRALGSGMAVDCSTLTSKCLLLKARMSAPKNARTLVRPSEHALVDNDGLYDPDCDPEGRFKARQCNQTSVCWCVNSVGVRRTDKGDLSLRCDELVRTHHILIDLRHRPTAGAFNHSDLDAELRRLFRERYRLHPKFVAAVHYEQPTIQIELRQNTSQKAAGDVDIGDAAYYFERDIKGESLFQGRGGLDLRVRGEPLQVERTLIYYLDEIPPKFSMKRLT
# Experiments:
# Details in all cases: remark: other sources report otherwise
# [1] = target: T1, Human TROP2 ECD (31-274 AA), …; test: ELISA, biotinylated TROP2 ECD on neutravidin plate, Fab titrated
# [2] = target: T1, Human TROP2 ECD (31-274 AA), …; test: ELISA, biotinylated TROP2 ECD on neutravidin plate (BLI cell of the same column: low binding); ELISA: no half-maximal signal up to 1000 nM Fab
# [3] = target: T1, Human TROP2 ECD (31-274 AA), …; test: ELISA: biotinylated TROP2 captured on neutravidin plate, Fab titrated, HRP secondary antibody
EC50 [1] [nM],EC50 [2] [nM],EC50 [3] [nM],Binder
> 1000,> 1000,> 1000,"TBD-4 (anti-TROP2 Fab, LC H91A) (Fab, here or on the partner: biotinylated (site not stated)) light: DIQLTQSPSSLSASVGDRVSITCKASQDVSIAVAWYQQKPGKAPKLLIYSASYRYTGVPDRFSGSGSGTDFTLTISSLQPEDFAVYYCQQAYITPLTFGAGTKVEIKRTVAAPSVFIFPPSDEQLKSGTASVVCLLNNFYPREAKVQWKVDNALQSGNSQESVTEQDSKDSTYSLSSTLTLSKADYEKHKVYACEVTHQGLSSPVTKSFNRGEC heavy: QVQLQQSGSELKKPGASVKVSCKASGYTFTNYGMNWVKQAPGQGLKWMGWINTYTGEPTYTDDFKGRFAFSLDTSVSTAYLQISSLKADDTAVYFCARGGFGSSYWYFDVWGQGSLVTVSSASTKGPSVFPLAPSSKSTSGGTAALGCLVKDYFPEPVTVSWNSGALTSGVHTFPAVLQSSGLYSLSSVVTVPSSSLGTQTYICNVNHKPSNTKVDKKVEPKSC"
> 1000,> 1000,> 1000,"TBD-5 (anti-TROP2 Fab, LC Y92A) (Fab, here or on the partner: biotinylated (site not stated)) light: DIQLTQSPSSLSASVGDRVSITCKASQDVSIAVAWYQQKPGKAPKLLIYSASYRYTGVPDRFSGSGSGTDFTLTISSLQPEDFAVYYCQQHAITPLTFGAGTKVEIKRTVAAPSVFIFPPSDEQLKSGTASVVCLLNNFYPREAKVQWKVDNALQSGNSQESVTEQDSKDSTYSLSSTLTLSKADYEKHKVYACEVTHQGLSSPVTKSFNRGEC heavy: QVQLQQSGSELKKPGASVKVSCKASGYTFTNYGMNWVKQAPGQGLKWMGWINTYTGEPTYTDDFKGRFAFSLDTSVSTAYLQISSLKADDTAVYFCARGGFGSSYWYFDVWGQGSLVTVSSASTKGPSVFPLAPSSKSTSGGTAALGCLVKDYFPEPVTVSWNSGALTSGVHTFPAVLQSSGLYSLSSVVTVPSSSLGTQTYICNVNHKPSNTKVDKKVEPKSC"
